Target: the molecule itself
Assay: AUC

B1: SSB-ΔL, linkerless variant of E. coli SSB (SSBΔ115–168) (natural protein, UniProt P0AGE0 2-178, looked up)
chain: ASRGVNKVILVGNLGQDPEVRYMPNGGAVANITLATSESWRDKATGEMKEQTEWHRVVLFGKLAEVASEYLRKGSQVYIEGQLRTRKWTDQSGQDRYTTEVVVNVGGTMQMLGGMDFDDDIPF
In the case of B1, the “stoichiometry N” value is reported as 4.

— PMC5576569 (Journal of molecular biology, 2017)
